Reference: patent US5773001 (American Cyanamid Company, dated 1998)
Where two headings read alike, the source gives them in different places. Values belong to the binder of their own block, whether it stands above or below them.

What was measured:
CD33 antigen (human) [1] = molecular target: CD33 antigen (human) (UniProt P20138); assay: competition with 125I-labelled native antibody on HEL 92.1.7 cells; IC50 (reference) / IC50 (sample)
CD33 antigen (human) [2] = molecular target: CD33 antigen (human) (UniProt P20138)
CD33 antigen (human) [3] = molecular target: CD33 antigen (human) (UniProt P20138); remark: listed apart in the source
CD33 antigen (human) [4] = molecular target: CD33 antigen (human) (UniProt P20138); remark: listed apart in the source
CD33 antigen (human) [5] = molecular target: CD33 antigen (human) (UniProt P20138); remark: listed apart in the source
CD33 antigen (human) [6] = molecular target: CD33 antigen (human) (UniProt P20138); remark: listed apart in the source
CD33 antigen (human) [7] = molecular target: CD33 antigen (human) (UniProt P20138); remark: listed apart in the source
CD33 antigen (human) [8] = molecular target: CD33 antigen (human) (UniProt P20138); remark: listed apart in the source
CD33 antigen (human) [9] = molecular target: CD33 antigen (human) (UniProt P20138); remark: listed apart in the source
CD33 antigen (human) [10] = molecular target: CD33 antigen (human) (UniProt P20138); remark: listed apart in the source
CD33 antigen (human) [11] = molecular target: CD33 antigen (human) (UniProt P20138); remark: listed apart in the source

B2: Conjugate of 4-(2-acetyl-1-naphthalenyl)oxy! butanoic acid (20) condensed with Calicheamicin N-acetyl gamma dimethyl hydrazide and h-P67.6 (antibody, V domains shown)
VH: EVQLVQSGAEVKKPGSSVKVSCKASGYTITDSNIHWVRQAPGQSLEWIGYIYPYNGGTDYNQKFKNRATLTVDNPTNTAYMELSSLRSEDTDFYYCVNGNPWLAYWGQGTLVTVSS
VL: DIQLTQSPSTLSASVGDRVTITCRASESLDNYGIRFLTWFQQKPGKAPKLLMYAASNQGSGVPSRFSGSGSGTEFTLTISSLQPDDFATYYCQQTKEVPWSFGQGTKVEVKR
modifications: drug-linker amide on lysine side chains, sites not stated; drug-linker amide on lysine side chains, sites not stated
- Rel. Affinity (CD33 antigen (human) [1]): 0.5
- Ex vivo inhibition of colony formation (CD33 antigen (human) [3]): 76 % inhibition
- In vitro IC50 (3H-thymidine incorporation) (CD33 antigen (human) [3]): 0.061 ng/mL

B5: Conjugate of 4-(4-formylphenoxy)butanoic acid (9) condensed with Calicheamicin N-acetyl gamma dimethyl hydrazide and h-P67.6 (antibody, V domains shown)
VH: EVQLVQSGAEVKKPGSSVKVSCKASGYTITDSNIHWVRQAPGQSLEWIGYIYPYNGGTDYNQKFKNRATLTVDNPTNTAYMELSSLRSEDTDFYYCVNGNPWLAYWGQGTLVTVSS
VL: DIQLTQSPSTLSASVGDRVTITCRASESLDNYGIRFLTWFQQKPGKAPKLLMYAASNQGSGVPSRFSGSGSGTEFTLTISSLQPDDFATYYCQQTKEVPWSFGQGTKVEVKR
modifications: drug-linker amide on lysine side chains, sites not stated; drug-linker amide on lysine side chains, sites not stated
- Rel. Affinity (CD33 antigen (human) [1]): 0.56
- Ex vivo inhibition of colony formation (CD33 antigen (human) [6]): 98 % inhibition
- In vitro IC50 (3H-thymidine incorporation) (CD33 antigen (human) [6]): 0.52 ng/mL

B6: Conjugate of 4-(2-oxoethoxy)benzenepropanoic acid (5) condensed with Calicheamicin N-acetyl gamma dimethyl hydrazide and h-P67.6 (antibody, V domains shown)
VH: EVQLVQSGAEVKKPGSSVKVSCKASGYTITDSNIHWVRQAPGQSLEWIGYIYPYNGGTDYNQKFKNRATLTVDNPTNTAYMELSSLRSEDTDFYYCVNGNPWLAYWGQGTLVTVSS
VL: DIQLTQSPSTLSASVGDRVTITCRASESLDNYGIRFLTWFQQKPGKAPKLLMYAASNQGSGVPSRFSGSGSGTEFTLTISSLQPDDFATYYCQQTKEVPWSFGQGTKVEVKR
modifications: drug-linker amide on lysine side chains, sites not stated; drug-linker amide on lysine side chains, sites not stated
- In vitro IC50 (3H-thymidine incorporation) (CD33 antigen (human) [7]): 2.22 ng/mL
- Rel. Affinity (CD33 antigen (human) [1]): 1.09

B8: Conjugate of 3-(2-oxoethoxy)benzoic acid (6) condensed with Calicheamicin N-acetyl gamma dimethyl hydrazide and h-P67.6 (antibody, V domains shown)
VH: EVQLVQSGAEVKKPGSSVKVSCKASGYTITDSNIHWVRQAPGQSLEWIGYIYPYNGGTDYNQKFKNRATLTVDNPTNTAYMELSSLRSEDTDFYYCVNGNPWLAYWGQGTLVTVSS
VL: DIQLTQSPSTLSASVGDRVTITCRASESLDNYGIRFLTWFQQKPGKAPKLLMYAASNQGSGVPSRFSGSGSGTEFTLTISSLQPDDFATYYCQQTKEVPWSFGQGTKVEVKR
modifications: drug-linker amide on lysine side chains, sites not stated; drug-linker amide on lysine side chains, sites not stated
- Rel. Affinity (CD33 antigen (human) [1]): 1.19
- In vitro IC50 (3H-thymidine incorporation) (CD33 antigen (human) [9]): 0.69 ng/mL

B9: Conjugate of 4-(4-acetylphenoxy)butanoic acid (7) condensed with calicheamicin gamma dimethyl hydrazide and h-P67.6 (antibody, V domains shown)
VH: EVQLVQSGAEVKKPGSSVKVSCKASGYTITDSNIHWVRQAPGQSLEWIGYIYPYNGGTDYNQKFKNRATLTVDNPTNTAYMELSSLRSEDTDFYYCVNGNPWLAYWGQGTLVTVSS
VL: DIQLTQSPSTLSASVGDRVTITCRASESLDNYGIRFLTWFQQKPGKAPKLLMYAASNQGSGVPSRFSGSGSGTEFTLTISSLQPDDFATYYCQQTKEVPWSFGQGTKVEVKR
modifications: drug-linker amide on lysine side chains, sites not stated; drug-linker amide on lysine side chains, sites not stated
- In vitro IC50 (3H-thymidine incorporation) (CD33 antigen (human) [10]): 0.001 ng/mL
- Rel. Affinity (CD33 antigen (human) [1]): 0.78

B10: Conjugate of 4-(4-acetylphenoxy)butanoic acid (7) condensed with Calicheamicin N-acetyl gamma dimethyl hydrazide and h-P67.6 (antibody, V domains shown)
VH: EVQLVQSGAEVKKPGSSVKVSCKASGYTITDSNIHWVRQAPGQSLEWIGYIYPYNGGTDYNQKFKNRATLTVDNPTNTAYMELSSLRSEDTDFYYCVNGNPWLAYWGQGTLVTVSS
VL: DIQLTQSPSTLSASVGDRVTITCRASESLDNYGIRFLTWFQQKPGKAPKLLMYAASNQGSGVPSRFSGSGSGTEFTLTISSLQPDDFATYYCQQTKEVPWSFGQGTKVEVKR
modifications: drug-linker amide on lysine side chains, sites not stated; drug-linker amide on lysine side chains, sites not stated
- Rel. Affinity (CD33 antigen (human) [1]): 0.75
- Ex vivo inhibition of colony formation (CD33 antigen (human) [11]): 96 % inhibition
- In vitro IC50 (3H-thymidine incorporation) (CD33 antigen (human) [11]): 0.098 ng/mL

Continued, values first:

- Rel. Affinity (CD33 antigen (human) [1]): 0.81
- In vitro IC50 (3H-thymidine incorporation) (CD33 antigen (human) [2]): 0.3 ng/mL
B1: Conjugate of 4-formyl-3-methoxyphenoxyacetic acid (3) condensed with Calicheamicin N-acetyl gamma dimethyl hydrazide and h-P67.6 (antibody, V domains shown)
VH: EVQLVQSGAEVKKPGSSVKVSCKASGYTITDSNIHWVRQAPGQSLEWIGYIYPYNGGTDYNQKFKNRATLTVDNPTNTAYMELSSLRSEDTDFYYCVNGNPWLAYWGQGTLVTVSS
VL: DIQLTQSPSTLSASVGDRVTITCRASESLDNYGIRFLTWFQQKPGKAPKLLMYAASNQGSGVPSRFSGSGSGTEFTLTISSLQPDDFATYYCQQTKEVPWSFGQGTKVEVKR
modifications: drug-linker amide on lysine side chains, sites not stated; drug-linker amide on lysine side chains, sites not stated

- Rel. Affinity (CD33 antigen (human) [1]): 0.5
- Ex vivo inhibition of colony formation (CD33 antigen (human) [4]): 99 % inhibition
- In vitro IC50 (3H-thymidine incorporation) (CD33 antigen (human) [4]): 0.012 ng/mL
B3: Conjugate of 4-acetylbenzenebutanoic acid (19) condensed with Calicheamicin N-acetyl gamma dimethyl hydrazide and h-P67.6 (antibody, V domains shown)
VH: EVQLVQSGAEVKKPGSSVKVSCKASGYTITDSNIHWVRQAPGQSLEWIGYIYPYNGGTDYNQKFKNRATLTVDNPTNTAYMELSSLRSEDTDFYYCVNGNPWLAYWGQGTLVTVSS
VL: DIQLTQSPSTLSASVGDRVTITCRASESLDNYGIRFLTWFQQKPGKAPKLLMYAASNQGSGVPSRFSGSGSGTEFTLTISSLQPDDFATYYCQQTKEVPWSFGQGTKVEVKR
modifications: drug-linker amide on lysine side chains, sites not stated; drug-linker amide on lysine side chains, sites not stated

- Ex vivo inhibition of colony formation (CD33 antigen (human) [5]): 95 % inhibition
- In vitro IC50 (3H-thymidine incorporation) (CD33 antigen (human) [5]): 0.23 ng/mL
- Rel. Affinity (CD33 antigen (human) [1]): 0.65
B4: Conjugate of 4-formylphenoxyacetic acid (1) condensed with Calicheamicin N-acetyl gamma dimethyl hydrazide and h-P67.6 (antibody, V domains shown)
VH: EVQLVQSGAEVKKPGSSVKVSCKASGYTITDSNIHWVRQAPGQSLEWIGYIYPYNGGTDYNQKFKNRATLTVDNPTNTAYMELSSLRSEDTDFYYCVNGNPWLAYWGQGTLVTVSS
VL: DIQLTQSPSTLSASVGDRVTITCRASESLDNYGIRFLTWFQQKPGKAPKLLMYAASNQGSGVPSRFSGSGSGTEFTLTISSLQPDDFATYYCQQTKEVPWSFGQGTKVEVKR
modifications: drug-linker amide on lysine side chains, sites not stated; drug-linker amide on lysine side chains, sites not stated

- Ex vivo inhibition of colony formation (CD33 antigen (human) [8]): 63 % inhibition
- In vitro IC50 (3H-thymidine incorporation) (CD33 antigen (human) [8]): 4.8 ng/mL
- Rel. Affinity (CD33 antigen (human) [1]): 0.99
B7: Conjugate of 4-formylbenzoic acid (2) condensed with Calicheamicin N-acetyl gamma dimethyl hydrazide and h-P67.6 (antibody, V domains shown)
VH: EVQLVQSGAEVKKPGSSVKVSCKASGYTITDSNIHWVRQAPGQSLEWIGYIYPYNGGTDYNQKFKNRATLTVDNPTNTAYMELSSLRSEDTDFYYCVNGNPWLAYWGQGTLVTVSS
VL: DIQLTQSPSTLSASVGDRVTITCRASESLDNYGIRFLTWFQQKPGKAPKLLMYAASNQGSGVPSRFSGSGSGTEFTLTISSLQPDDFATYYCQQTKEVPWSFGQGTKVEVKR
modifications: drug-linker amide on lysine side chains, sites not stated; drug-linker amide on lysine side chains, sites not stated
